Assay results reported in patent publication US20020037996A1 (INSTITUTE OF PHYSICAL AND CHEMICAL RESEARCH, published 2002).

Biological target: T1, nitrile hydratase (NHase) β subunit derived from Rhodococcus sp. N-771, in the nitrosylated (inactive) enzyme (Rhodococcus sp. N-771, UniProt P13449 1-212)
T1 sequence (looked up): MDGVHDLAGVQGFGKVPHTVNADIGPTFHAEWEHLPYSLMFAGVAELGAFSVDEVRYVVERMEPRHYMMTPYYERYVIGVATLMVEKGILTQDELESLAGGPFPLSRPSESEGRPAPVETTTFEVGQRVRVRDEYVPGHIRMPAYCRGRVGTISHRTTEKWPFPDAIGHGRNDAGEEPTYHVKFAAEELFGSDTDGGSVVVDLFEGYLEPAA
Assay: X-ray crystallography of nitrosylated NHase, 1.7 Å; hetero-tetramer (αβ)2 in the crystal, dimer-tetramer equilibrium in solution by sedimentation equilibrium and dynamic light scattering
Excerpt: Two αβ hetero-dimers existed in an asymmetric unit of the crystal. […] The structural model was crystallographically refined at 1.7 Å resolution (R-factor 0.179, R-free0.228). […] The non-heme iron center was located at the interface between the two subunits in the hetero-dimer.

B1: nitrile hydratase (NHase) α subunit derived from Rhodococcus sp. N-771, in the nitrosylated (inactive) enzyme (enzyme, UniProt P13448 2-207, looked up)
chain: SVTIDHTTENAAPAQAPVSDRAWALFRALDGKGLVPDGYVEGWKKTFEEDFSPRRGAELVARAWTDPEFRQLLLTDGTAAVAQYGYLGPQGEYIVAVEDTPTLKNVIVCSLCSCTAWPILGLPPTWYKSFEYRARVVREPRKVLSEMGTEIASDIEIRVYDTTAETRYMVLPQRPAGTEGWSQEQLQEIVTKDCLIGVAIPQVPTV
modifications: cysteinesulfinic acid (Cys-SO2H) at 112; cysteinesulfenic acid (Cys-SOH) at 114; non-heme iron with bound NO coordinated by Cys109, Cys112, Ser113, Cys114
B1: binds.
